{
  "source": "patent US20240052039A1",
  "target": "recombinant α4β1 integrin (R&D Systems) (UniProt P13612)",
  "experiment": "ELISA, recombinant α4β1 immobilised; reference is the anti-VLA-4 scFv",
  "data": [
    {"substance": "Fab of Natalizumab", "values": [
      {"measurement": "fold ELISA signal against scFv", "value": 10, "unit": "times"}
    ]}
  ]
}
